In the DeepSol protein solubility set:

Assay: soluble on expression in E. coli; label from the status in PepcDB or PDB records

Row | Sequence | soluble on expression in E. coli
1 | FTLRLNSTEMPMSDLIEVELLTGKQLLLVEPNMQAASVTQQILSQEGILVTYRSSLPENEEHYDYVLLNLAANQTYDEQSVAAWIEQAKRMAPSVIMGTPSTELALADQIMTEHQIQCLTKPLSRRKLLQS | not soluble
2 | GPPPPPGPPPPPGPPPPPGL | soluble
3 | MIRHFKHKGLQLFFETGDKSGIRPDHASRLARQLRQLNDAVNPREMNIPGWKLHPLSGDLSGYWSVMVNGNWRMIFVFDGEDVILVDYRDDH | not soluble
4 | MGSDKIHHHHHHAAVLSGCEFNEDFCIRNGELVAWCDFSGIRETPPVPEERHIIAFPSGMDIPSGEQMTFTQDTLRQSIPQGEYQFLFYTGNYEVSDIRDYHEARLMARTDTLEGEVYISGVQKFCCSAGFSQRLEYQRPKRVPITPSAFVQRLNIQINVSGNITPLAGLQGTLTGISTGRYLVSRERTGNASVTSLFSRKPETDRWKTSLYAFGFNPAAENILSVKIEMDGKDSVFNEEQKVDLTPYLRGFDSDELSLELDLHIGKELTIGEPVVIPDWEDIPETELPNYN | not soluble
5 | QGTRVTLKVDKEYQQALSRGHSAGHLAYLALNKVLAASYWRKDADRKDPHGNYDFNSYAQEASFVTPDKCLDTYRLGKTLRKRGLNSAEMLSDLEKIEGQVNAQLKFWLERDAAIIMDCHGDNLTDSRYWKCDLGEGELAVIPCGGTHAEHLSDFGSIHVKLVEMDSQTIEMHTDVIACFSN | not soluble
6 | MKKVYIKTFGCQMNEYDSDKMADVLGSAEGMVKTDNPEEADVILFNTCSVREKAQEKVFSDLGRIRPLKEANPDLIIGVGGCVASQEGDAIVKRAPFVDVVFGPQTLHRLPDLIESRKQSGRSQVDISFPEIEKLEHHHHHH | not soluble
7 | MGSDKIHHHHHHMTSVTPCASSSSEMNDFLQAHPDTQYVDLLISDMNGVVRGKRIERASLHKVYEKGINLPASLFALDINGSTVESTGLGLDIGDADRICFPIPGTLSDEPWQKRPTAQLLMTMHELDGQPFFADPREVLRQVVSKFDDLGLTICAAFELEFYLIDQDNLNGRPQPPRSPISGKRPQSTQVYLIDDLDEYADCLQDMLEAAKEQGLPADAIVKESAPAQFEVNLHHVADPLKACDYAILLKRLIKNVAYDHEMDTTFMAKPYPGQAGNGLHVHISLLDKKTGKNIFASDDPLQSDTLRHAIGGVLETMPASMAFLCPNINSYRRFGAQFYVPNAPSWGLDNRTVAVRVPTDSSENVRLEHRVAGADANPYLMLAAILAGVHHGLTNKVEPEAPIEGNSYEQLEQSLPNNLRDALRALDDSEVLNQYISPDYIDIFVACKESELAEFEVSISDLEYNWYLHTV | not soluble
8 | MWHSIEQAISVETGKSFYISEKKEISTRPASSSSFTCSYDNKEPPPNLSFKITDGHRSYFLKINNKDYLENFQAEAYSLKQLNSLANIASPNVTAIGTSLDKSFLVLDYIDFSKAKPMLWYQLGQQLAQMHYENRHGQFGWQHDNFIGSTIQPNHWSSNWTTFFSDQRIAWQLQLLSERSIMLGNIEHITQVCHDALLHHQVSPCLVHGDLWQGNTGFSGEKAMIFDPACYYGDREVDIAMTELFGHFPDDFYHGYQAEYPLDDGYEQRKLVYNFYHILNHANIFGGIYIDQAKATLSRIMSLPLHLEHHHHHH | not soluble
9 | SLDIRALGYFVAQTDAPQEWQHYAEQVLGMMTAPTDDGGFYIKMDERPYRMLVIPGADKRYFASGWELTGAKAYNNAKQTLLDKGIAFEEANKALCEQRRVQNILIVNDPAGNRHELYWGHVSDCQPFTSPQGVPAFITGDMGLGHTVLPAPNFDETFAFLTDVLGFELSDLFNFKPAPEADPIRIYFMHCGNARHHSLAICEFPVPSGCVHAMVEVENMTEVGRAHDRQQQHQVQLSATLGQHLNDKMTSFYMKTPSGFDLEYGFGGLQVENWEEHCAFEFSRVSLWGHDFSVGEKEG | not soluble
10 | MRMNIRVALPQAQVHWCRGWLQAAHADALMQALLDQVQWEVHRIRMFGRVVDSPRLSSWIGDADASYRYSGTQFAPQPWLEALQPVRTRLQDETGSPFNSVLVNRYRSGADAMGWHSDDEPELGAQPVIASLSLGAARRFAFKHRHDAALKQTLELGHGDLLLMGGDTQRHYKHALPRTVKPVGERINLTFRQIAVRVSQRLEHHHHHH | not soluble
11 | GPGSMGVALTHGLQRQRQQRTAAGHRSANRRGKRGLPPSLLGRLCMFVFVWMHLAEERERRECRLQGKKVFLEESSAGSSRSCMRRRHVCGVRACAGRRGCFASSVISLRCWTSSQSAVVAALTRLRVSSFSAPHLFRLARSAAPTREAASTKYFIDSLAAHSSRLIGVRAPLAHTHVHLGDCIDSTTSACVCGEEIHHHRAQPGVTVSLCTPFSLSHTPSTAWAPLLPADKHHMQASPVLAGAAVRRTATASVGSEPRTNLPFLINVVKKAQKSANTVVASTPALSSMSSTKEPPIQAAAFKPYPLLSPGEVKQAAGSSLLYKDDVCVLVNDAFPKSMVHCLVMPLDLRLQSLNALTKKDAPLLRHMLHVGDEYVRYLKTAVPHTYTARRFIAGFHALPSLPMLHMHVLSTDLDSPCLKNKKHYNSFATFFFLTGDRVLDDLERHGRVTLNQDVTRLRQMEEQDMKCLWCGTALPSVPAMKSHIQCCPQNKAVEKSS | not soluble
12 | MGSDKIHHHHHHMSLVVGSARIDENGHISGGKPGDQTGNEVSTQAYYVHSKGWYCLRPKSITVANAIAEAMLQGCRNNNIGYCQGHRSNVIEQLRRVGKLSKISVKTEADCSSLVRACCIQAGFDPGNFNTASEASALKATGQFMEAIAVTSKTELFNGDVLVTKTKGHTVVVVSGNPRHGNTYYPKYEGTSGSIITALAAVGEKDTSKAHRAKIAAANGITNYAYTAAQNTKMVNLLKKGKLIKA | not soluble
13 | MSSLFVVGIGPGSNDLMTPQASLAIERSEYVIGFSLYVSFIKEKFPNKIYISNGMQGEIERAKKAIELARSGHNVSIISSGDAGIYGIAGAVFEILSTLEDNMPEVSVVPGIS | soluble
14 | MPVTLSFGNRHNYEINHSRLARLMSPDKEEALYMGVWDRFKDCFRTHKKQEVLEVLYTLIHGCERENQAELNVDITGMEKIHAFTQLKEYANPSQQDRFVMRFDMNQTQVLFEIDGKVIDKCNLHRLLNVSENCIFKVMEEDEEELFLKICIKYGEKISRYPELLEGFANKLKDAVNEDDDVKDEVYKLMRSGEDRKMECVEWNGTLTEEEKNKLRCLQMGSFNITTQFFKIGYWELEGEVLFDMVHPTLSYLLQAYKPSLSSDLIETNTMLFSDVLNKDYDDYQNNKREIDAILRRIYRSHNNTLFISEKSSCRNMLI | not soluble
15 | MGSDKIHHHHHHMNNSLAFNHDTLPQKVMFGYGKSSAFLKQEVERRGSAKVMVIAGEREMSIAHKVASEIEVAIWHDEVVMHVPIEVAERARAVATDNEIDLLVCVGGGSTIGLAKAIAMTTALPIVAIPTTYAGSEATNVWGLTEAARKTTGVDLKVLPETVIYDSELTMSLPVEMSVASGLNGLAHCIDSLWGPNADPINAVLAAEGIRALNQGLPKIVANPHSIEGRDEALYGAYLAAVSFASAGSGLHHKICHTLGGTFNLPHAQTHATVLPYVLAFNAGDAPEAERRAAAAFGTDTALEGLQRLRLSVNAPKRLSDYGFEASGIAEAVDVTLEKVPANNPRPVTRENLSRLLEAALNGEDPAVLSAVLSN | not soluble
16 | MSLADGKTYKIGAAVYGLKGQFMQNWVRELKEHPAVKDGTVKITVFDGNYDALTQNNQIETMITQHYDAIIFVPIDTKAGVGTVARAMENDIPVIASNTRVAGNKVPYVGNDDVEGGRLQAQAMVDKLKGKGNVVIIQGPIGQSAQIDREKGELEVLSKHPDIKIIEKKTANWSRAEAQTLTEDWLNAHQNGGISGIISQNDDMALGALQAVKSRNLKPADVPITSIDGMPDAIQAAKKNEITTFLQDAQAQSQGALDVALRALAGKDYKPQSVIWQRYAKDVKWGDGTDEGHHHHHH | soluble
17 | KDAVLVNSELKNIYMKDVINKTNMKITKKIGTQLIFNTNEKTRVWDDDNYNKVISSNVSPAQERRFKEEEEVDIYALIKSYSVICKEQYNYVDGGLIKTSDREKLDSTIYMNIFGEQIPLKEQSKYKITFQNKFVTFQEIDVRLRKSLMSDNRIKLYEHNSICKKGYWGIHYKDNTTKFTDLFTHPNYTDNETIDMSKVSHFDVYLNEEFSKN | soluble
